Results as given in patent US20210163536A1.
Bridges are numbered along the chain shown (N, C = ends). [ ]: non-standard residue; d: D form.

Legend:
[1] = target: human melanocortin-4 receptor (human) (UniProt P32245); assay: cell-based or functional assay
[2] = target: human melanocortin-3 receptor (human) (UniProt P41968); assay: cell-based or functional assay
[3] = target: human melanocortin-1 receptor (human) (UniProt Q01726); assay: competition with [125I]-NDP-alpha-MSH, CHO-K1 cell membranes
Chain of human melanocortin-1 receptor (human) (Q01726 whole entry): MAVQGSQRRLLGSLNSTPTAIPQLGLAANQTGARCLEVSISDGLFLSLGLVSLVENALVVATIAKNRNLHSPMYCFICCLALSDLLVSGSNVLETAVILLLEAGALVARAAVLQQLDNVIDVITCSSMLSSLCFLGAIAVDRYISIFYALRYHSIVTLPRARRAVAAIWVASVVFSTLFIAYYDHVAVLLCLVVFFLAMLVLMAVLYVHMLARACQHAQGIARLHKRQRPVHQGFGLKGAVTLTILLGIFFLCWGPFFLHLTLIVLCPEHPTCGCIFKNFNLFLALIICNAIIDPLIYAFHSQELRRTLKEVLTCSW

[4] = target: human melanocortin-4 receptor (human) (UniProt P32245); assay: as above
[5] = target: human melanocortin-3 receptor (human) (UniProt P41968); assay: as above

Chain of human melanocortin-3 receptor (human) (P41968 whole entry): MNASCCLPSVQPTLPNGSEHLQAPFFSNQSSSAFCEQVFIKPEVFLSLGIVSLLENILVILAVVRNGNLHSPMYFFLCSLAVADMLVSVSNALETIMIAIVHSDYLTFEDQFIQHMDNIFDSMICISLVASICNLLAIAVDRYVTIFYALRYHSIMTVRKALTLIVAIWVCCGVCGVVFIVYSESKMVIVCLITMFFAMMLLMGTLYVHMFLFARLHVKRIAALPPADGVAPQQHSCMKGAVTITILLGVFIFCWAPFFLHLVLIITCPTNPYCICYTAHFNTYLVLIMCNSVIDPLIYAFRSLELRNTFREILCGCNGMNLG
Chain of human melanocortin-4 receptor (human) (P32245 whole entry): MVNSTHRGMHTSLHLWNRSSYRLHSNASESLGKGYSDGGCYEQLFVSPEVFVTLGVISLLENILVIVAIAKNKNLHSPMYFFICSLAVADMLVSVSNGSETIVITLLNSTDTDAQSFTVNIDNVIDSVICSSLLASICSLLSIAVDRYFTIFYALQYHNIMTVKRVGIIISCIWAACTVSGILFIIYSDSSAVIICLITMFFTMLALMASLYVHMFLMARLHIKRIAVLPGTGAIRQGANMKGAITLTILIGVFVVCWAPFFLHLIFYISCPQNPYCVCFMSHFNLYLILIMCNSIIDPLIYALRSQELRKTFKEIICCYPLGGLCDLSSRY

EC50, intracellular cyclic AMP (cAMP) levels [1]: 0.00362 µM
EC50, intracellular cyclic AMP (cAMP) levels [2]: 0.0223 µM
Ki [3]: 0.0726 µM
Ki [4]: 0.0452 µM
Ki [5]: 1.92 µM
B1: cyclo[Hydantoin(C(O)-(Glu-D-Ala))-His-D-Phe-Arg-Trp-Lys]-NH2 (peptide)
peptide: H[dF]RWK-NH2
modifications: lactam N-5; not fully specified (N-terminus); printed as cyclo[Hydantoin(C(O)-(Glu-D-Ala))-His-D-Phe-Arg-Trp-Lys]-NH2; also: hydantoin ring from Glu and D-Ala with C(O) joining their backbone nitrogens
